Measurements as given in US20180086804A1 (COMMISSARIAT A L ENERGIE ATOMIQUE ET AUX ENERGIES …, published 2018).
No end group written: not given here.

These binders were tested against T1, HLA-DR13 (HLA-DRB1*13:01) (human) (assay: competition ELISA vs biotin-B1 21-36).
T1 construct: mature; purified from homozygous EBV-transformed lymphoblastoid cells with antibody L243

For REVTGNMRAILIDWL-NH2 [CCNB1 195-209], the relative affinity was 45.

What follows are binders tested against T2, HLA-DP402 (HLA-DPB1*04:02) (human, UniProt P20036 29-222) (assay: competition ELISA vs biotin-Oxy 271-287).
T2 construct: mature; purified from homozygous EBV-transformed lymphoblastoid cells with antibody B7/21

First: TAMFIASKYEEMYPP-NH2 [CCNB1 250-264]
Second: VQMKFRLLQETMYMT-NH2 [CCNB1 212-226]
The relative affinity of the first is lower: 1 for the first, 9 for the second.

Going from ETMYMTVSIIDRFMQ-NH2 [CCNB1 221-235] to DWLVQVQMKFRLLQE-NH2 [CCNB1 207-221], the relative affinity rises from 68 to 171.

What follows are binders tested against T3, HLA-DP401 (HLA-DPB1*04:01) (human, UniProt P20036 29-222) (assay: competition ELISA vs biotin-Oxy 271-287).
T3 construct: mature; purified from homozygous EBV-transformed lymphoblastoid cells with antibody B7/21

First: TAMFIASKYEEMYPP-NH2 [CCNB1 250-264]
Second: VQMKFRLLQETMYMT-NH2 [CCNB1 212-226]
The relative affinity of the first is lower: 0.1 for the first, 110 for the second.

ETMYMTVSIIDRFMQ-NH2 [CCNB1 221-235] showed a relative affinity of 59.

These binders were tested against T4, HLA-DR15 (HLA-DRB1*15:01) (human) (assay: competition ELISA vs biotin-A3 152-166).
T4 construct: mature; purified from homozygous EBV-transformed lymphoblastoid cells with antibody L243

First: FAFVTDNTYTKHQIR-NH2 [CCNB1 269-283]
Second: PEIGDFAFVTDNTYT-NH2 [CCNB1 264-278]
The relative affinity of the first is lower: 17 for the first, 300 for the second.

Going from QAFSDVILAVNDVDA-NH2 [CCNB1 144-158] to REVTGNMRAILIDWL-NH2 [CCNB1 195-209], the relative affinity falls from 46 to 30.

Each binder was assayed against T5, HLA-DR3 (HLA-DRB1*03:01) (human) (assay: competition ELISA vs biotin-MT 2-16).
T5 construct: mature; purified from homozygous EBV-transformed lymphoblastoid cells with antibody L243

Compared with FAFVTDNTYTKHQIR-NH2 [CCNB1 269-283], PEIGDFAFVTDNTYT-NH2 [CCNB1 264-278] is higher in relative affinity: 0.1 for the first, 85 for the second.

Going from QAFSDVILAVNDVDA-NH2 [CCNB1 144-158] to REVTGNMRAILIDWL-NH2 [CCNB1 195-209], the relative affinity falls from 8 to 1.

Biological target: T5, HLA-DR3 (HLA-DRB1*03:01)
Test: competition ELISA vs biotin-MT 2-16
Remark: another data set of the same source

Compared with TAMFIASKYEEMYPP-NH2 [CCNB1 250-264], VQMKFRLLQETMYMT-NH2 [CCNB1 212-226] is lower in relative affinity: 4 for the first, 1 for the second.

ETMYMTVSIIDRFMQ-NH2 [CCNB1 221-235] and DWLVQVQMKFRLLQE-NH2 [CCNB1 207-221] are the same in relative affinity: 0.5 for the first, 0.5 for the second.

What follows are binders tested against T6, HLA-DR1 (HLA-DRB1*01:01) (human) (assay: competition ELISA vs biotin-HA 306-318;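 further: HLA and competitor incubated 24 to 72 h, maximal signal taken from wells lacking competitor, background from wells lacking HLA molecule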).
T6 construct: mature; class II HLA molecule purified from homozygous EBV-transformed lymphoblastoid cells with antibody L243

Compared with FAFVTDNTYTKHQIR-NH2 [CCNB1 269-283], PEIGDFAFVTDNTYT-NH2 [CCNB1 264-278] is higher in relative affinity: 1340 for the first, 7000 for the second.

Compared with QAFSDVILAVNDVDA-NH2 [CCNB1 144-158], REVTGNMRAILIDWL-NH2 [CCNB1 195-209] is lower in relative affinity: 1730 for the first, 55 for the second.

Each binder was assayed against T7, HLA-DR4 (HLA-DRB1*04:01) (human) (assay: competition ELISA vs biotin-HA 306-318;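 further: HLA and competitor incubated 24 to 72 h, maximal signal taken from wells lacking competitor, background from wells lacking HLA molecule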).
T7 construct: mature; purified from homozygous EBV-transformed lymphoblastoid cells with antibody L243

First: FAFVTDNTYTKHQIR-NH2 [CCNB1 269-283]
Second: PEIGDFAFVTDNTYT-NH2 [CCNB1 264-278]
The relative affinity of the first is lower: 0.4 for the first, 2 for the second.

Going from QAFSDVILAVNDVDA-NH2 [CCNB1 144-158] to REVTGNMRAILIDWL-NH2 [CCNB1 195-209], the relative affinity rises from 12 to 260.

What follows are binders tested against T8, HLA-DR11 (HLA-DRB1*11:01) (human) (assay: competition ELISA vs biotin-HA 306-318;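 further: HLA and competitor incubated 24 to 72 h, maximal signal taken from wells lacking competitor, background from wells lacking HLA molecule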).
T8 construct: mature; purified from homozygous EBV-transformed lymphoblastoid cells with antibody L243

First: FAFVTDNTYTKHQIR-NH2 [CCNB1 269-283]
Second: PEIGDFAFVTDNTYT-NH2 [CCNB1 264-278]
The relative affinity of the first is higher: 2190 for the first, 1670 for the second.

Binder REVTGNMRAILIDWL-NH2 [CCNB1 195-209] has a relative affinity of 1180.

What follows are binders tested against T9, HLA-DRB5 (HLA-DRB5*01:01) (human) (assay: competition ELISA vs biotin-HA 306-318;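 further: HLA and competitor incubated 24 to 72 h, maximal signal taken from wells lacking competitor, background from wells lacking HLA molecule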).
T9 construct: mature; purified from homozygous EBV-transformed lymphoblastoid cells with antibody L243

First: FAFVTDNTYTKHQIR-NH2 [CCNB1 269-283]
Second: PEIGDFAFVTDNTYT-NH2 [CCNB1 264-278]
The relative affinity of the first is lower: 42 for the first, 61 for the second.

In the case of REVTGNMRAILIDWL-NH2 [CCNB1 195-209], the relative affinity is reported as 1410.

What follows are binders tested against T10, HLA-DRB4 (HLA-DRB4*01:01) (human) (assay: competition ELISA vs biotin-E2/E168).
T10 construct: mature; purified from homozygous EBV-transformed lymphoblastoid cells with antibody L243

For REVTGNMRAILIDWL-NH2 [CCNB1 195-209], the relative affinity was 23.

What follows are binders tested against T11, HLA-DR7 (HLA-DRB1*07:01) (human) (assay: competition ELISA vs biotin-YKL).
T11 construct: mature; purified from homozygous EBV-transformed lymphoblastoid cells with antibody L243

First: TAMFIASKYEEMYPP-NH2 [CCNB1 250-264]
Second: VQMKFRLLQETMYMT-NH2 [CCNB1 212-226]
The relative affinity of the first is lower: 4 for the first, 40 for the second.

Going from ETMYMTVSIIDRFMQ-NH2 [CCNB1 221-235] to DWLVQVQMKFRLLQE-NH2 [CCNB1 207-221], the relative affinity rises from 1 to 7.

Biological target: T1, HLA-DR13 (HLA-DRB1*13:01)
Test: competition ELISA vs biotin-B1 21-36
Remark: another data set of the same source

First: TAMFIASKYEEMYPP-NH2 [CCNB1 250-264]
Second: VQMKFRLLQETMYMT-NH2 [CCNB1 212-226]
The relative affinity of the first is higher: 3 for the first, 1 for the second.

Going from ETMYMTVSIIDRFMQ-NH2 [CCNB1 221-235] to DWLVQVQMKFRLLQE-NH2 [CCNB1 207-221], the relative affinity falls from 59 to 1.

Biological target: T6, HLA-DR1 (HLA-DRB1*01:01)
Test: competition ELISA vs biotin-HA 306-318
Remark: another data set of the same source

Compared with TAMFIASKYEEMYPP-NH2 [CCNB1 250-264], VQMKFRLLQETMYMT-NH2 [CCNB1 212-226] is lower in relative affinity: 22 for the first, 1 for the second.

First: ETMYMTVSIIDRFMQ-NH2 [CCNB1 221-235]
Second: DWLVQVQMKFRLLQE-NH2 [CCNB1 207-221]
The relative affinity of the first is higher: 89 for the first, 38 for the second.

Biological target: T7, HLA-DR4 (HLA-DRB1*04:01)
Test: competition ELISA vs biotin-HA 306-318
Remark: another data set of the same source

Going from TAMFIASKYEEMYPP-NH2 [CCNB1 250-264] to VQMKFRLLQETMYMT-NH2 [CCNB1 212-226], the relative affinity falls from 70 to 2.

For ETMYMTVSIIDRFMQ-NH2 [CCNB1 221-235], the relative affinity was 37.

Biological target: T8, HLA-DR11 (HLA-DRB1*11:01)
Test: competition ELISA vs biotin-HA 306-318
Remark: another data set of the same source

Going from TAMFIASKYEEMYPP-NH2 [CCNB1 250-264] to VQMKFRLLQETMYMT-NH2 [CCNB1 212-226], the relative affinity falls from 6 to 5.

Compared with ETMYMTVSIIDRFMQ-NH2 [CCNB1 221-235], DWLVQVQMKFRLLQE-NH2 [CCNB1 207-221] is lower in relative affinity: 1 for the first, 0.4 for the second.

Biological target: T9, HLA-DRB5 (HLA-DRB5*01:01)
Test: competition ELISA vs biotin-HA 306-318
Remark: another data set of the same source

Going from TAMFIASKYEEMYPP-NH2 [CCNB1 250-264] to VQMKFRLLQETMYMT-NH2 [CCNB1 212-226], the relative affinity falls from 82 to 2.

Going from ETMYMTVSIIDRFMQ-NH2 [CCNB1 221-235] to DWLVQVQMKFRLLQE-NH2 [CCNB1 207-221], the relative affinity rises from 1 to 5.

Biological target: T10, HLA-DRB4 (HLA-DRB4*01:01)
Test: competition ELISA vs biotin-E2/E168
Remark: another data set of the same source

Going from VQMKFRLLQETMYMT-NH2 [CCNB1 212-226] to ETMYMTVSIIDRFMQ-NH2 [CCNB1 221-235], the relative affinity falls from 683 to 7.

With DWLVQVQMKFRLLQE-NH2 [CCNB1 207-221] the relative affinity was 49.

Biological target: T11, HLA-DR7 (HLA-DRB1*07:01)
Test: competition ELISA vs biotin-YKL
Remark: another data set of the same source

Going from FAFVTDNTYTKHQIR-NH2 [CCNB1 269-283] to PEIGDFAFVTDNTYT-NH2 [CCNB1 264-278], the relative affinity falls from 577 to 86.

Biological target: T2, HLA-DP402 (HLA-DPB1*04:02)
Test: competition ELISA vs biotin-Oxy 271-287
Remark: another data set of the same source

REVTGNMRAILIDWL-NH2 [CCNB1 195-209] showed a relative affinity of 791.

Biological target: T3, HLA-DP401 (HLA-DPB1*04:01)
Test: competition ELISA vs biotin-Oxy 271-287
Remark: another data set of the same source

First: QAFSDVILAVNDVDA-NH2 [CCNB1 144-158]
Second: REVTGNMRAILIDWL-NH2 [CCNB1 195-209]
The relative affinity of the first is lower: 51 for the first, 725 for the second.

Biological target: T4, HLA-DR15 (HLA-DRB1*15:01)
Test: competition ELISA vs biotin-A3 152-166
Remark: another data set of the same source

Going from TAMFIASKYEEMYPP-NH2 [CCNB1 250-264] to VQMKFRLLQETMYMT-NH2 [CCNB1 212-226], the relative affinity rises from 9 to 46.

Going from ETMYMTVSIIDRFMQ-NH2 [CCNB1 221-235] to DWLVQVQMKFRLLQE-NH2 [CCNB1 207-221], the relative affinity rises from 0.3 to 7.

The binders below were run against T12, HLA-DRB3 (HLA-DRB3*01:01) (human) (assay: competition ELISA vs biotin-LOL 191-210).
T12 construct: mature; purified from homozygous EBV-transformed lymphoblastoid cells with antibody L243

TAMFIASKYEEMYPP-NH2 [CCNB1 250-264] and VQMKFRLLQETMYMT-NH2 [CCNB1 212-226] are the same in relative affinity: 34 for the first, 34 for the second.

Going from ETMYMTVSIIDRFMQ-NH2 [CCNB1 221-235] to DWLVQVQMKFRLLQE-NH2 [CCNB1 207-221], the relative affinity rises from 22 to 160.

Biological target: T12, HLA-DRB3 (HLA-DRB3*01:01)
Test: competition ELISA vs biotin-LOL 191-210
Remark: another data set of the same source

Going from FAFVTDNTYTKHQIR-NH2 [CCNB1 269-283] to PEIGDFAFVTDNTYT-NH2 [CCNB1 264-278], the relative affinity falls from 34 to 19.

First: QAFSDVILAVNDVDA-NH2 [CCNB1 144-158]
Second: REVTGNMRAILIDWL-NH2 [CCNB1 195-209]
The relative affinity of the first is lower: 18 for the first, 20 for the second.
